# B1: CLCC1 (natural protein, human, UniProt Q96S66 19-551, looked up)
# chain: HDDDWIDPTDMLNYDAASGTMRKSQAKYGISGEKDVSPDLSCADEISECYHKLDSLTYKIDECEKKKREDYESQSNPVFRRYLNKILIEAGKLGLPDENKGDMHYDAEIILKRETLLEIQKFLNGEDWKPGALDDALSDILINFKFHDFETWKWRFEDSFGVDPYNVLMVLLCLLCIVVLVATELWTYVRWYTQLRRVLIISFLFSLGWNWMYLYKLAFAQHQAEVAKMEPLNNVCAKKMDWTGSIWEWFRSSWTYKDDPCQKYYELLLVNPIWLVPPTKALAVTFTTFVTEPLKHIGKGTGEFIKALMKEIPALLHLPVLIIMALAILSFCYGAGKSVHVLRHIGGPESEPPQALRPRDRRRQEEIDYRPDGGAGDADFHYRGQMGPTEQGPYAKTYEGRREILRERDVDLRFQTGNKSPEVLRAFDVPDAEAREHPTVVPSHKSPVLDTKPKETGGILGEGTPKESSTESSQSAKPVSGQDTSGNTEGSPAAEKAQLKSEAAGSPDQGSTYSPARGVAGPRGQDPVSSPCG
# notes: CLCC1, human
# Molecular target: the molecule itself
# Assay: migration on a gel, blot (Supplementary Fig. 8c); without reducing agent; sample and gel conditions not shown
protein,measurement,value
B1,stoichiometry N,2
